Measurements reported in patent US20240199755A1, “ANTAGONISTS AND AGONISTS OF THE TRANSFERRIN RECEPTOR-2 FOR USE IN THE TREATMENT OF DISEASES OF THE BONE” (Kymab Limited, priority 2018, published 2024).
“Also recorded” adds a separate entry of the source.

Tested on: BMP-2-induced heterotopic ossification
Test: BMP-2-induced heterotopic ossification (HO) mouse model
Assay type: in vivo, mice
Conditions: for Heterotopic ossification (bone volume by μCT): after two weeks
Procedure: Male and female C57BL/6 mice are used for the HO model. The HO is triggered by injecting BMP-2 into the muscle (Wosczyna et al. 2012).
All the mice are fed with standard feed and water ad libitum and are kept in groups of five mice per cage. The mice are exposed to a 12-hour light/dark cycle and air cooling to 23° C. (no special pathogen-free room). Enrichment is provided in the form of cardboard houses and bedding material. The mice are randomly divided into the different treatment groups and the assays are subsequently carried out as blind experiments.
The HO is examined by means of treatment using 2.5 μl of a 1 mg/ml recombinant BMP-2 solution (Thermo Fisher Scientific) or 2.5 μl of a 1 mg/ml Tfr2-ECD mixed with 47.5 μl Matrigel (BD Bioscience) at 0° C. For combination treatment, 2.5 of a 1 mg/ml recombinant BMP-2 solution is mixed with 2.5 μl of a 1 mg/ml Tfr2-ECD and 45 μl Matrigel. The Matrigel mixtures are injected into the musculus tibialis anterior of 10-week-old female wild-type mice. The legs are examined after two weeks.
The bone microarchitecture is analyzed using vivaCT40 (Scanco Medical, Switzerland). The entire lower leg bones are measured at a resolution of 10.5 μm using X-rays of 70 kVp, […] and at an integration time of 200 s. Predefined scripts from Scanco are used to analyze the bone (#1).
Heterotopic ossification (HO): The HO model was performed according to Wosczyna et al^32. Briefly, 2.5 μl of 1 mg/ml recombinant BMP-2 (Thermo Fisher) or 2.5 μl of 1 mg/ml Tfr2-ECD were mixed with 47.5 μl matrigel (BD Bioscience) on ice. For the local combination treatment, 2.5 μl BMP-2 were mixed with 2.5 μl Tfr2-ECD and 45 μl matrigel. The matrigel-mixtures were injected into the midbelly of the tibialis anterior muscle of 10-week-old female WT and Tfr2-deficient mice. Some mice were treated daily with palovarotene through oral gavage using a previously published protocol^58. Palovarotene (Hycultec) was dissolved in DMSO and diluted 1:4 with corn oil. Mice received palovarotene at a dose of 100 μg/mouse for the first five days and 50 μg/mouse for the remainder of the experiment (days 6-14). Two weeks after BMP-2 injection, the legs were harvested for analysis. This experiment was performed three times with 3-11 mice per group. To analyze the chondrogenic phase of HO, we performed an experiment as described above that was terminated on day 8. This was performed once with 4-6 mice per group.
For systemic Tfr2-ECD treatment, WT mice were treated every other day with Tfr2-ECD intraperitoneally for two weeks. Mice received 250 μg Tfr2-ECD (10 mg/kg BW) per injection for the first 10 days after BMP-2/matrigel injection into the muscle and 125 μg per injection (5 mg/kg BW) for the remaining time. This experiment was performed once with 8-10 mice per group. Drop-weight HO: This experiment was performed according to Liu et al. with minor modifications^65. Female 10-12-week-old WT mice were anesthetized and placed on a ridge of a plastic container over which the right leg was bent so the femur was lying horizontally. Mice received an injection of 1 μg BMP-2 mixed in 50 μl matrigel. Afterwards, a stainless-steel ball of 16 g (16 mm diameter) was dropped from a distance of 80 cm height onto the quadriceps muscle. Mice either received a single dose of 1 μg Tfr2-ECD, which was co-injected with the BMP-2/matrigel mixture, or palovarotene (Hycultec), which was administered daily by oral gavage. Palovarotene was dissolved in DMSO and diluted 1:4 with corn oil. […]

[1] = WT mice, day 8, systemic treatment, Safranin O staining

B1: Tfr2-ECD: Recombinant full-length extracellular domain (aa 103-798) of murine Tfr2, His-tagged, expressed in Sf9 insect cells (protein, listed as Mus musculus)
chain: RGSCQACGDSVLVVDEDVNPEDSGRTTLYWSDLQAMFLRFLGEGRMEDTIRLTSLRERVAGSARMATLVQDILDKLSRQKLDHVWTDTHYVGLQFPDPAHANTLHWVDADGSVQEQLPLEDPEVYCPYSATGNATGKLVYAHYGRSEDLQDLKAKGVELAGSLLLVRVGITSFAQKVAVAQDFGAQGVLIYPDPSDFSQDPHKPGLSSHQAVYGHVHLGTGDPYTPGFPSFNQTQFPPVESSGLPSIPAQPISADIADQLLRKLTGPVAPQEWKGHLSGSPYRLGPGPDLRLVVNNHRVSTPISNIFACIEGFAEPDHYVVIGAQRDAWGPGAAKSAVGTAILLELVRTFSSMVSNGFRPRRSLLFISWDGGDFGSVGATEWLEGYLSVLHLKAVVYVSLDNSVLGDGKFHAKTSPLLVSLIENILKQVDSPNHSGQTLYEQVALTHPSWDAEVIQPLPMDSSAYSFTAFAGVPAVEFSFMEDDRVYPFLHTKEDTYENLHKMLRGRLPAVVQAVAQLAGQLLIRLSHDHLLPLDFGRYGDVVLRHIGNLNEFSGDLKERGLTLQWVYSARGDYIRAAEKLRKEIYSSERNDERLMRMYNVRIMRVEFYFLSQYVSPADSPFRHIFLGQGDHTLGALVDHLRMLRADGSGAASSRLTAGLGFQESRFRRQLALLTWTLQGAANALSGDVWNIDNNF
modifications: His tag
notes: Recombinant full-length extracellular domain (aa 103-798) of murine Tfr2, His-tagged, expressed in Sf9 insect cells
With B1 the “Heterotopic ossification (bone volume by μCT)” value (“Heterotopic ossification” below) (Tfr2-/- mice, co-application of Tfr2-ECD with BMP-2) was “significantly inhibited”, the “Number of chondrocytes (chondrogenic phase of HO)” value [1] was “suppressed” and the “Production of cartilage (chondrogenic phase of HO)” value [1] was “suppressed”. The “Heterotopic ossification” value (WT mice, local Tfr2-ECD co-injected with BMP-2 into the muscle) was “significant reduction in bone formation; also recorded: completely abrogated; also recorded: reduced; also recorded: inhibited” and the “Heterotopic ossification” value (WT mice, systemic treatment, i.p. injections every other day) was “reduced; also recorded: inhibited”.
